Article PMC3272839

Target: LRP1 minireceptor of domain IV, mLRP4 (UniProt Q07954)
Assay: flow cytometry on cells

Sequence of UniProt Q07954 (Q07954 20-4544): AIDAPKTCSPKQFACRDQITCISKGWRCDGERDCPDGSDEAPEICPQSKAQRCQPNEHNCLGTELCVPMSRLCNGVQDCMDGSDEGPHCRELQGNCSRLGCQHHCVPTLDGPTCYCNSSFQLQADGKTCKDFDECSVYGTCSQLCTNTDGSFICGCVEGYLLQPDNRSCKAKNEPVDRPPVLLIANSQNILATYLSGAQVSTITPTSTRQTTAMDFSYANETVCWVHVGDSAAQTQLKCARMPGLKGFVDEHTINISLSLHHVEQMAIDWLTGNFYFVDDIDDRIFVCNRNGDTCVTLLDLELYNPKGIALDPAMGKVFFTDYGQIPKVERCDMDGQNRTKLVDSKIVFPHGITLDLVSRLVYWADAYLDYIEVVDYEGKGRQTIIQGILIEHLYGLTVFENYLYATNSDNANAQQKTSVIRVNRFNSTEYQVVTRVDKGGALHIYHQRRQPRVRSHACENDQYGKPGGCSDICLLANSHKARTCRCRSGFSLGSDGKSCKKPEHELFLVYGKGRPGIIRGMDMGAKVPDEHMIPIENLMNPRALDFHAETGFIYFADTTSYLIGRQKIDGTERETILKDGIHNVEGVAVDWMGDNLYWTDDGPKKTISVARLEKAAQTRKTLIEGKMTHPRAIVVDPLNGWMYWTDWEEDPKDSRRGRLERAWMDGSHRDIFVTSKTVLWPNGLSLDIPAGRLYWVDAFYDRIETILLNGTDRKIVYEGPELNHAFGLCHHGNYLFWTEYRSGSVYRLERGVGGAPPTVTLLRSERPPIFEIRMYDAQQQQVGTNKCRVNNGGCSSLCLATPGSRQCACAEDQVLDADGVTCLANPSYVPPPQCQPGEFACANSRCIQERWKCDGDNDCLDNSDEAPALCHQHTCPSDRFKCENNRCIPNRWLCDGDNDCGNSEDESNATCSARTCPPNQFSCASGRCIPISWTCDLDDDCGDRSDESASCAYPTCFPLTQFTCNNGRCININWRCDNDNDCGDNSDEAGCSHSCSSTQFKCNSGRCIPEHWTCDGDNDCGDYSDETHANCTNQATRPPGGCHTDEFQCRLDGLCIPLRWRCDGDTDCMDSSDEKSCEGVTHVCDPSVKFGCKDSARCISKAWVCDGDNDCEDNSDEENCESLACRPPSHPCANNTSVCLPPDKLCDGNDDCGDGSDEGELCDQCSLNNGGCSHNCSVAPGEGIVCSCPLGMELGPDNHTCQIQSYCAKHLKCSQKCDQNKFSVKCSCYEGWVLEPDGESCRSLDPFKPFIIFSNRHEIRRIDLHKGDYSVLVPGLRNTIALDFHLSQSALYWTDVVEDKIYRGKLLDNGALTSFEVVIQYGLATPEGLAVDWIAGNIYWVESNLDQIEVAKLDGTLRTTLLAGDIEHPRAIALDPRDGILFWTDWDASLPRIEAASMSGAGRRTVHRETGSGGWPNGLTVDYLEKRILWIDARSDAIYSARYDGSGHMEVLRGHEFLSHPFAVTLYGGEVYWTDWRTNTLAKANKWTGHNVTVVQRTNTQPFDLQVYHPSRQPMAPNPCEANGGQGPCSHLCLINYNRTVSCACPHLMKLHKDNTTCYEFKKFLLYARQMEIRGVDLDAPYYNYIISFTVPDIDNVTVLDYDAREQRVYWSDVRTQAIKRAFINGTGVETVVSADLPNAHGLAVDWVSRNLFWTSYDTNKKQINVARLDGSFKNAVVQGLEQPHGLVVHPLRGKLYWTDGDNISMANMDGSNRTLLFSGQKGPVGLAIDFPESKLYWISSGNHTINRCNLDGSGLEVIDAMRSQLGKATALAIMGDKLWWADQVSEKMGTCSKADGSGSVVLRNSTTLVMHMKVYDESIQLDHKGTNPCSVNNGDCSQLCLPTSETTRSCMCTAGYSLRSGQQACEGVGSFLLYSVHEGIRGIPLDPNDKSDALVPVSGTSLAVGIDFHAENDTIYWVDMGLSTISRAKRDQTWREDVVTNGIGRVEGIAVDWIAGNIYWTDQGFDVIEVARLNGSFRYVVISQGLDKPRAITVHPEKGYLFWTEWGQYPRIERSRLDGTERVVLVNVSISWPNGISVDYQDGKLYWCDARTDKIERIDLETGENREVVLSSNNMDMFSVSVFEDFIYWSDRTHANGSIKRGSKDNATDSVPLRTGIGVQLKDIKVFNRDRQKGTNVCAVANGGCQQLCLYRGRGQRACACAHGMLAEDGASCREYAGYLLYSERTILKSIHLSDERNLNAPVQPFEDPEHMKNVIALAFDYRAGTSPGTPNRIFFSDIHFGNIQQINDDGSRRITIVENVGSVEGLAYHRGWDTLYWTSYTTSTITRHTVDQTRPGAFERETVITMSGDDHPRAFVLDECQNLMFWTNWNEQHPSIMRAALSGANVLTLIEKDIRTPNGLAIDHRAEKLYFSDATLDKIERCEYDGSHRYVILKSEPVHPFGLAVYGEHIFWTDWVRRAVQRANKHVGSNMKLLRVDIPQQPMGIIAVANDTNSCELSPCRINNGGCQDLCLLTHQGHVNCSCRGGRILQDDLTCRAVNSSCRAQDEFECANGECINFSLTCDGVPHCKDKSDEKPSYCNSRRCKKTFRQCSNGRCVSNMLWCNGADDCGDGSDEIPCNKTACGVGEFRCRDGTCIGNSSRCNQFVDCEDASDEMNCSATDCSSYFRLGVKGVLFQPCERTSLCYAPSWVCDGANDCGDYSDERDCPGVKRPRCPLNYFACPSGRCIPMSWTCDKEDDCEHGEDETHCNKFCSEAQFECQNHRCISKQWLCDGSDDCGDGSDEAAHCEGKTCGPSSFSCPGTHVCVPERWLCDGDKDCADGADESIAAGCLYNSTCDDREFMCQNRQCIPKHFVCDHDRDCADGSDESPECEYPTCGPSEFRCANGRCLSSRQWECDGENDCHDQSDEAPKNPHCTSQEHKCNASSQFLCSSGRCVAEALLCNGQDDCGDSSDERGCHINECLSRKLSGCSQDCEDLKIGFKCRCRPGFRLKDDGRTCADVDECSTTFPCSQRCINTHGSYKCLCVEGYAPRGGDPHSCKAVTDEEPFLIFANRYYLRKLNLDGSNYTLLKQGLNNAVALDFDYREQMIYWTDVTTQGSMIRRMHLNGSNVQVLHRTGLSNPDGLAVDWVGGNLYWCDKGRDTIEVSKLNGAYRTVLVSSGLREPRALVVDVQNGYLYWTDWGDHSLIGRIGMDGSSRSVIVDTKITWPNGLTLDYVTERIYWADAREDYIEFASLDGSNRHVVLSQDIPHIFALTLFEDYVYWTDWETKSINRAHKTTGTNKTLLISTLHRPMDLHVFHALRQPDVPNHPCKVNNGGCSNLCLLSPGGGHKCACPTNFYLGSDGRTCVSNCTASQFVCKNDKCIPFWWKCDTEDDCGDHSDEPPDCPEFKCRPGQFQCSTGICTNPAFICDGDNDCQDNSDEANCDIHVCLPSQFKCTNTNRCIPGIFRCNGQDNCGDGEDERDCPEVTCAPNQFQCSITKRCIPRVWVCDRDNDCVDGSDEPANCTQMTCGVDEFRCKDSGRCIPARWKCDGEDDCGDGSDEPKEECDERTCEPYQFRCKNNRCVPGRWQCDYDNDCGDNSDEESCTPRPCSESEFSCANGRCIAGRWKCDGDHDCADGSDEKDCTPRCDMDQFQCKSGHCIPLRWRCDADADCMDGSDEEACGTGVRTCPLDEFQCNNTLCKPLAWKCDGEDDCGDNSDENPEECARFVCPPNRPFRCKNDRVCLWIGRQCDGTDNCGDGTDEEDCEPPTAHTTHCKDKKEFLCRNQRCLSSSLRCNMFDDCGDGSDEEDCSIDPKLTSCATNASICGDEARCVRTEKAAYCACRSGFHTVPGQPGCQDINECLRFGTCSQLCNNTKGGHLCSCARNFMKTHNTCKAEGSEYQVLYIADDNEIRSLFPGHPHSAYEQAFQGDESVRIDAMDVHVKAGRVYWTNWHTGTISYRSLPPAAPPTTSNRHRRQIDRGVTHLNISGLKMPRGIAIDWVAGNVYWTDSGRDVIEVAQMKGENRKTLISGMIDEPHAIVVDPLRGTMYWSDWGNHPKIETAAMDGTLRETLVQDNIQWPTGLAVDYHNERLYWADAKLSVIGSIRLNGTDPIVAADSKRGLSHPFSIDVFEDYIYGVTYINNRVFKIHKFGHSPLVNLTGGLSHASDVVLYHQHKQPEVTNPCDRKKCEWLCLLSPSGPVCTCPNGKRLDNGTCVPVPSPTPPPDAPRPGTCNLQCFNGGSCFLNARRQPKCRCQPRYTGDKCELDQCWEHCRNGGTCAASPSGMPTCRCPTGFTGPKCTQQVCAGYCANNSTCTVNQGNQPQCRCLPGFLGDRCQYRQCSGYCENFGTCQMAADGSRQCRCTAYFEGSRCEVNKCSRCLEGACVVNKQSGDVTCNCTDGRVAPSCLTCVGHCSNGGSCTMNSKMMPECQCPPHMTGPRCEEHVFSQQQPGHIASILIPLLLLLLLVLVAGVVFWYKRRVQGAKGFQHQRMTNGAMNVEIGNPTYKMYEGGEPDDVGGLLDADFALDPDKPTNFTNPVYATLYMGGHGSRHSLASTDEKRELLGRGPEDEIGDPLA

fold RAP binding against N2a-pcDNA3 cells (fold of N2a-pcDNA3 cells): 2.2
Substance: Alexa488-labeled receptor-associated protein (RAP) (from UniProt P30533 35-357) (ligand)
